{"source": "patent US20030228627A1", "about": "“Assay for p53 function in cells” (priority 2002, published 2003)", "target": "Full-length human histidine-tagged p300 (human) (UniProt Q09472)", "sequence (Q09472 2-2414)": "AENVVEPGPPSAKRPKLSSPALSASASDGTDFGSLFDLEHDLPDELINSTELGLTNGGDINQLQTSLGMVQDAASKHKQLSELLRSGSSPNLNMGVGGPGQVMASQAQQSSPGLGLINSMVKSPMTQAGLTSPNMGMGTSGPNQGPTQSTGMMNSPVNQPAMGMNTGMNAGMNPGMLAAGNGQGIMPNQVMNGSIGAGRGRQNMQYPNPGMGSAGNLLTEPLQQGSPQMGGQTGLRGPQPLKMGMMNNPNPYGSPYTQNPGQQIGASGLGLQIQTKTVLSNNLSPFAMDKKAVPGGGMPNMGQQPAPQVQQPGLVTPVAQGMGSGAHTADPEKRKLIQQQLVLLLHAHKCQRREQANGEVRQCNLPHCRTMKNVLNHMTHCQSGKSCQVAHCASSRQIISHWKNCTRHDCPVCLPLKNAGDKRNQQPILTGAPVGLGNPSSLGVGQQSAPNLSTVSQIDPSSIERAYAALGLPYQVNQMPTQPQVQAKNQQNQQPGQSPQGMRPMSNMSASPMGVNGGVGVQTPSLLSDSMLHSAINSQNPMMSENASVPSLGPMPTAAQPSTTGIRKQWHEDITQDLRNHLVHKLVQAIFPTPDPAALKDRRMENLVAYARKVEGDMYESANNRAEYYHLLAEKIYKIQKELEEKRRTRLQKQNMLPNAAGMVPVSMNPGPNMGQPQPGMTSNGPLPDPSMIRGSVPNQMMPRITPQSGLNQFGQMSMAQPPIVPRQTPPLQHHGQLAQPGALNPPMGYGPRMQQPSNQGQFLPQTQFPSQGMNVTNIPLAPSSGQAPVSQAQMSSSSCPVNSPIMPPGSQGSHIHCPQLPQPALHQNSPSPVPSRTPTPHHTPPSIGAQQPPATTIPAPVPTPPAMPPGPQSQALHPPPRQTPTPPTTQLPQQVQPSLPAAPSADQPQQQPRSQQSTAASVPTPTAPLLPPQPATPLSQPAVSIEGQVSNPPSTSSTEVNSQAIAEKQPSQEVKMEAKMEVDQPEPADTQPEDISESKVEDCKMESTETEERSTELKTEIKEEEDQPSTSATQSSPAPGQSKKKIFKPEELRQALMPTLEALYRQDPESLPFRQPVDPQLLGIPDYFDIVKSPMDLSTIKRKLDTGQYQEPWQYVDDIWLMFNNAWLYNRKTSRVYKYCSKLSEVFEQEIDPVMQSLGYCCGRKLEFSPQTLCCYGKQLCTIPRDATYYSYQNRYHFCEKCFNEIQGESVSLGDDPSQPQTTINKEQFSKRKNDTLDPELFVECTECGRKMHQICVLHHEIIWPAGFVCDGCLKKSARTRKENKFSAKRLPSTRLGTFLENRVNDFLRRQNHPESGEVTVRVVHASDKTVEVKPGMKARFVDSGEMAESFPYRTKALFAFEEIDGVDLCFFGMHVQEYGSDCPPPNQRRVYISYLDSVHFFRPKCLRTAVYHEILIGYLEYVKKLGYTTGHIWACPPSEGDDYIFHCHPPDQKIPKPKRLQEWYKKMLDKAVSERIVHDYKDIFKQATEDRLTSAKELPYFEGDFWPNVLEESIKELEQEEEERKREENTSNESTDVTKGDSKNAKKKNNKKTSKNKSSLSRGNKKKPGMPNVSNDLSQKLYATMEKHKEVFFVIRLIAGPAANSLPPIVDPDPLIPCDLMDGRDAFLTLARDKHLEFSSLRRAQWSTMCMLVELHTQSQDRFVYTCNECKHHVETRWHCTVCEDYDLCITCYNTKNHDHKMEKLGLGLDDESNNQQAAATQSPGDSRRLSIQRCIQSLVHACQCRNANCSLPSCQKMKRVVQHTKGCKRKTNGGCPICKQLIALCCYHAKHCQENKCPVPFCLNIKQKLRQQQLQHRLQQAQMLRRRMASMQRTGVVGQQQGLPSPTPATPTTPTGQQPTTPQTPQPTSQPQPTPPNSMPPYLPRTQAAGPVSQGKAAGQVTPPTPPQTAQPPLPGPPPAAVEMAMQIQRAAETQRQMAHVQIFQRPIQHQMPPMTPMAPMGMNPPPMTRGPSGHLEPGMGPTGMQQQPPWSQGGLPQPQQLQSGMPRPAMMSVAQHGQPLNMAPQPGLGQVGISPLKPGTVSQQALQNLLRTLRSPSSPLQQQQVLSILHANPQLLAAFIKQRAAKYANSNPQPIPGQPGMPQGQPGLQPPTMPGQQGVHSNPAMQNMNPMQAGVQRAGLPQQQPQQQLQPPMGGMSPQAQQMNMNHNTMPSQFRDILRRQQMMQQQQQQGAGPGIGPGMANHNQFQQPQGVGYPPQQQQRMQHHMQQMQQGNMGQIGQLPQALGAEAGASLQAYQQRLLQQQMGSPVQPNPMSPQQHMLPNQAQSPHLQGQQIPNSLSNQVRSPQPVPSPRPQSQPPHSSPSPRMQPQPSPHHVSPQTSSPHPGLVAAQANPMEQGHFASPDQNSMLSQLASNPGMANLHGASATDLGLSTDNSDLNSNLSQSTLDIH", "test": "cell-based or functional assay"}
{"substance": "Full-length human Flag-tagged p53 (native, unacetylated) (from UniProt P04637 1-393)", "values": [{"measurement": "increased acetylation in a distal region 2 kb downstream of the proximal promoter of the p21-LUC plasmid (in vitro chromatin immunoprecipitation with anti-acetyl-H4)", "result": 1.4, "unit": "fold"}, {"measurement": "increased acetylation near the 3' p53 binding site of the p21-LUC plasmid (in vitro chromatin immunoprecipitation with anti-acetyl-H4)", "result": 3.4, "unit": "fold"}]}
